Source: patent EP0910659B1, “ANTIBODIES AGAINST A COMPLEX OF CD4 AND A CHEMOKINE RECEPTOR DOMAIN, AND THEIR USE AGAINST HIV INFECTIONS” (United Biomedical, Inc., priority 1996, dated 1997)

Columns and labels:
monoclonal antibody B4 [1] = assay: competition rsCD4 ELISA, B4 10 µg/mL, peptide 1.67 mg/mL
monoclonal antibody B4 [2] = assay: competition rsCD4 ELISA, B4 10 µg/mL, peptide 16.7 µg/mL
monoclonal antibody B4 [3] = assay: competition rsCD4 ELISA, B4 10 µg/mL, peptide 167 µg/mL
"B4-rsCD4" interaction = biological target: T1, "B4-rsCD4" interaction (Homo sapiens, UniProt P01730); assay: ELISA inhibition assay with CD4 peptides (B4); format: binding; settings: B4 10 µg/mL, negative = enhancement; for % inhibition of "B4-rsCD4" interaction, Conc 3: peptide 16.7 µg/mL; for % inhibition of "B4-rsCD4" interaction, Conc 2: peptide 167 µg/mL; for % inhibition of "B4-rsCD4" interaction, Conc 1: peptide 1.67 mg/mL
T1 construct: purchased American Bio-Technologies, Inc. Cambridge, MA
Protocol: (§1) ELISA Inhibition Assays. […] The preincubated sample and peptide mixture was used directly in the standard rsCD4 ELISA procedure described herein above. Percent inhibition was calculated relative to the appropriate identically diluted monoclonal antibody which was preincubated in the absence of peptide. rsCD4-induced inhibition of antibody binding in the rsCD4 ELISA was similarly measured by preincubating diluted samples, at an endpoint rsCD4 binding dilution, with the competing rsCD4 at the indicated concentration.
(§2) The signal generated at endpoint concentration (e.g. 10 µg/mL for B4 and 20 µg/mL for M2) in an rsCD4 ELISA was employed as a positive control for the competitive peptide binding studies.
Table 5 depicts per cent inhibition results obtained in the rsCD4 ELISA where designed CD4 peptides were serially diluted and individually incubated with 0.1 mL of B4 at 10 µg/mL prior to the binding of B4 to the solid phase-bound rsCD4. Peptides were employed for competitive inhibition at concentrations of 1.67 mg/mL, 167 µg/mL and 16.7 µg/mL (conc 1, conc 2, and conc 3, respectively). […] Enhancement is expressed by negative values for inhibition.

"M2-rsCD4" interaction = biological target: T2, "M2-rsCD4" interaction (Homo sapiens, UniProt P01730); assay: ELISA inhibition assay with CD4 peptides (M2); format: binding; settings: M2 20 µg/mL, negative = enhancement; for % inhibition of "M2-rsCD4" interaction, Conc 3: peptide 16.7 µg/mL; for % inhibition of "M2-rsCD4" interaction, Conc 2: peptide 167 µg/mL; for % inhibition of "M2-rsCD4" interaction, Conc 1: peptide 1.67 mg/mL
T2 construct: purchased American Bio-Technologies, Inc. Cambridge, MA
Protocol: as §1, §2
Table 6 depicts the per cent inhibition results obtained in the rsCD4 ELISA where designed CD4 peptides were serially diluted as in Table 5 and were individually incubated with 0.1 mL of M2 at 20 µg/mL prior to binding M2 to the solid phase-bound rsCD4.

monoclonal antibody B4 [4] = assay: competition rsCD4 ELISA, B4 10 µg/mL, peptide 1.67 mg/mL; negative value = enhancement
monoclonal antibody B4 [5] = assay: competition rsCD4 ELISA, B4 10 µg/mL, peptide 16.7 µg/mL; negative value = enhancement
monoclonal antibody B4 [6] = assay: competition rsCD4 ELISA, B4 10 µg/mL, peptide 167 µg/mL; negative value = enhancement
[7] = biological target: gp120 of HIV-1 primary field isolate DH-12 (clade B); assay: cell-based or functional assay
[8] = biological target: gp120 of HIV-1 primary isolate BR014 (clade B); assay: cell-based or functional assay
[9] = biological target: gp120 of HIV-1 primary isolate 23135 (clade B); assay: cell-based or functional assay
[10] = biological target: CD4 on the surface of CD4-expressing cells (host cell antigen complex comprising CD4) (human); assay: HPB-ALL cells pre-incubated with PBS, then gp120-FITC 1:200
monoclonal antibody B4 [11] = assay: soluble rsCD4 0.05 µg/mL preincubated with biotinylated B4 0.71 µg/mL, then HPB-ALL cells; no inhibition
monoclonal antibody B4 [12] = assay: soluble rsCD4 50 µg/mL preincubated with biotinylated B4 0.71 µg/mL, then HPB-ALL cells; no inhibition
monoclonal antibody B4 [13] = assay: competition ELISA: soluble rsCD4 0.2 µg/mL preincubated with B4 2 µg/mL; solid-phase rsCD4
monoclonal antibody B4 [14] = assay: soluble rsCD4 0.005 µg/mL preincubated with biotinylated B4 0.71 µg/mL, then HPB-ALL cells; no inhibition
monoclonal antibody B4 [15] = assay: soluble rsCD4 5 µg/mL preincubated with biotinylated B4 0.71 µg/mL, then HPB-ALL cells; no inhibition
monoclonal antibody B4 [16] = assay: competition ELISA: soluble rsCD4 1.0 µg/mL preincubated with B4 2 µg/mL; solid-phase rsCD4
monoclonal antibody B4 [17] = assay: competition ELISA: soluble rsCD4 0.04 µg/mL preincubated with B4 2 µg/mL; solid-phase rsCD4
monoclonal antibody B4 [18] = assay: competition ELISA: soluble rsCD4 5 µg/mL preincubated with B4 2 µg/mL; solid-phase rsCD4
monoclonal antibody B4 [19] = assay: competition ELISA: soluble rsCD4 0.008 µg/mL preincubated with B4 2 µg/mL; solid-phase rsCD4
monoclonal antibody B4 [20] = assay: competition ELISA: soluble rsCD4 preincubated with B4 2 µg/mL; solid-phase rsCD4
monoclonal antibody B4 [21] = assay: soluble rsCD4 0.5 µg/mL preincubated with biotinylated B4 0.71 µg/mL, then HPB-ALL cells; no inhibition
monoclonal antibody B4 [22] = assay: competition ELISA: soluble rsCD4 25 µg/mL preincubated with B4 2 µg/mL; solid-phase rsCD4
monoclonal antibody B4 [23] = assay: ELISA inhibition: soluble rsCD4 preincubated with B4 0.1 µg/mL; wells coated with rsCD4/CC-CKR5-D3 (p2047a)
monoclonal antibody B4 [24] = assay: ELISA inhibition: soluble rsCD4 preincubated with B4 2 µg/mL; wells coated with rsCD4

## p1768b HBVTh-GG-CD4(154-165) (peptide)
Monoclonal antibody B4 [1]
  % inhibition of B4-rsCD4 interaction: 76%
Monoclonal antibody B4 [2]
  % inhibition of B4-rsCD4 interaction: 11%
Monoclonal antibody B4 [3]
  % inhibition of B4-rsCD4 interaction: 44%

## p1813b HBVTh-GG-CD4(79-88) (peptide)
Monoclonal antibody B4 [1]
  % inhibition of B4-rsCD4 interaction: 93%
Monoclonal antibody B4 [2]
  % inhibition of B4-rsCD4 interaction: 32%
Monoclonal antibody B4 [3]
  % inhibition of B4-rsCD4 interaction: 69%

## p1768a CD4(154-165) (peptide)
Monoclonal antibody B4 [1]
  % inhibition of B4-rsCD4 interaction: 82%
Monoclonal antibody B4 [2]
  % inhibition of B4-rsCD4 interaction: 6%
Monoclonal antibody B4 [3]
  % inhibition of B4-rsCD4 interaction: 37%

## CD4 (36-47) [1624a]
"B4-rsCD4" interaction
  % inhibition of "B4-rsCD4" interaction, Conc 3: -108%
  % inhibition of "B4-rsCD4" interaction, Conc 2: -207%
  % inhibition of "B4-rsCD4" interaction, Conc 1: -215%
"M2-rsCD4" interaction
  % inhibition of "M2-rsCD4" interaction, Conc 3: -141%
  % inhibition of "M2-rsCD4" interaction, Conc 2: -251%
  % inhibition of "M2-rsCD4" interaction, Conc 1: -261%

## CD4 (154-165) [1768a]
"B4-rsCD4" interaction
  % inhibition of "B4-rsCD4" interaction, Conc 3: 6%
  % inhibition of "B4-rsCD4" interaction, Conc 2: 37%
  % inhibition of "B4-rsCD4" interaction, Conc 1: 82%
"M2-rsCD4" interaction
  % inhibition of "M2-rsCD4" interaction, Conc 3: 19%
  % inhibition of "M2-rsCD4" interaction, Conc 2: 36%
  % inhibition of "M2-rsCD4" interaction, Conc 1: 86%

## CD4 (297-351*) [1868a]
"B4-rsCD4" interaction
  % inhibition of "B4-rsCD4" interaction, Conc 3: 19%
  % inhibition of "B4-rsCD4" interaction, Conc 2: 30%
  % inhibition of "B4-rsCD4" interaction, Conc 1: 38%
"M2-rsCD4" interaction
  % inhibition of "M2-rsCD4" interaction, Conc 3: 17%
  % inhibition of "M2-rsCD4" interaction, Conc 2: 43%
  % inhibition of "M2-rsCD4" interaction, Conc 1: 56%

## p1624a (C)CD4(36-47)(C), cyclic (peptide)
Monoclonal antibody B4 [4]
  % inhibition of B4-rsCD4 interaction: -215%
Monoclonal antibody B4 [5]
  % inhibition of B4-rsCD4 interaction: -108%
Monoclonal antibody B4 [6]
  % inhibition of B4-rsCD4 interaction: -207%

## recombinant human monoclonal antibody IgG1 b12
[7]
  HIV-1 DH-12 (chimp PBL-grown), PBMC Infection Reduction Assay: 1.38 logs killed
[8]
  50% Inhbt., HIV-1 primary isolate BR014, MT-2 Microplaque Neutralization Assay: > 50 µg/mL
[9]
  50% Inhbt., HIV-1 primary isolate 23135, MT-2 Microplaque Neutralization Assay: 12.8 µg/mL

## HIV-1 gp120 (ligand)
[10]
  % of cells stained by gp120-FITC: > 90%

## CD4 (1-20) [1816d]
"B4-rsCD4" interaction
  % inhibition of "B4-rsCD4" interaction, Conc 3: 29%
  % inhibition of "B4-rsCD4" interaction, Conc 2: 53%
  % inhibition of "B4-rsCD4" interaction, Conc 1: 64%
"M2-rsCD4" interaction
  % inhibition of "M2-rsCD4" interaction, Conc 3: 17%
  % inhibition of "M2-rsCD4" interaction, Conc 2: 60%
  % inhibition of "M2-rsCD4" interaction, Conc 1: 74%

## p1816d CD4(1-20) (peptide)
Monoclonal antibody B4 [1]
  % inhibition of B4-rsCD4 interaction: 64%
Monoclonal antibody B4 [2]
  % inhibition of B4-rsCD4 interaction: 29%
Monoclonal antibody B4 [3]
  % inhibition of B4-rsCD4 interaction: 53%

## p1868a CD4(297-351), cyclic (peptide)
Monoclonal antibody B4 [1]
  % inhibition of B4-rsCD4 interaction: 38%
Monoclonal antibody B4 [2]
  % inhibition of B4-rsCD4 interaction: 19%
Monoclonal antibody B4 [3]
  % inhibition of B4-rsCD4 interaction: 30%

## recombinant soluble CD4 (rsCD4) (receptor)
Monoclonal antibody B4 [11]
  % Positive cells (biotinylated B4 staining of HPB-ALL): > 95%
  staining (biotinylated B4 on HPB-ALL): 3 +
Monoclonal antibody B4 [12]
  % Positive cells (biotinylated B4 staining of HPB-ALL): > 95%
  staining (biotinylated B4 on HPB-ALL): 3 +
Monoclonal antibody B4 [13]
  % Inhibition: 6.7%
  A492 nm: 0.633 A492
Monoclonal antibody B4 [14]
  % Positive cells (biotinylated B4 staining of HPB-ALL): > 95%
  staining (biotinylated B4 on HPB-ALL): 3 +
Monoclonal antibody B4 [15]
  % Positive cells (biotinylated B4 staining of HPB-ALL): > 95%
  staining (biotinylated B4 on HPB-ALL): 3 +
Monoclonal antibody B4 [16]
  % Inhibition: 49.9%
  A492 nm: 0.34 A492
Monoclonal antibody B4 [17]
  % Inhibition: 6.1%
  A492 nm: 0.637 A492
Monoclonal antibody B4 [18]
  % Inhibition: 91%
  A492 nm: 0.061 A492
Monoclonal antibody B4 [19]
  % Inhibition: -4.7%
  A492 nm: 0.711 A492
Monoclonal antibody B4 [20]
  IC50: 1 µg/mL
Monoclonal antibody B4 [21]
  % Positive cells (biotinylated B4 staining of HPB-ALL): > 95%
  staining (biotinylated B4 on HPB-ALL): 3 +
Monoclonal antibody B4 [22]
  % Inhibition: 91.9%
  A492 nm: 0.055 A492
Monoclonal antibody B4 [23]
  IC50: 0.047 µg/mL
Monoclonal antibody B4 [24]
  IC50: 0.72 µg/mL
